The values that follow come from patent publication US20230295327A1 (published 2023).

For experiment [1], the target named is T1, IL-12 receptor beta 1-biotin (IL-12Rβ1-Biotin; Acrobiosystems) (human, UniProt P42701 24-545, biotin (site not stated)). The experiment is described as follows: ELISA; control, flat curve.
The target of experiment [2] is T2, recombinant human CD20 (human, UniProt P11836 1-297).
T2 chain: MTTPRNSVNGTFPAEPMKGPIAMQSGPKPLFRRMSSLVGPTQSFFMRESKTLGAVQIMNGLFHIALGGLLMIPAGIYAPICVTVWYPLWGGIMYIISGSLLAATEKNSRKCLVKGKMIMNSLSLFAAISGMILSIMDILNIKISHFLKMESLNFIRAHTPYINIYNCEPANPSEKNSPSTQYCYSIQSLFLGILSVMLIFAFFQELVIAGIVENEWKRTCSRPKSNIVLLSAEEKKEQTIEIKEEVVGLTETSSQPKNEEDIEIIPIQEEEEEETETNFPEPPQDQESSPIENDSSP
The experiment is described as follows: SPR.

In experiment [3] the target is T2, recombinant human CD20. The experiment is described as follows: SPR. On the technique in general: In SPR one partner is held on a chip, and binding of the other changes the refractive index at the surface.
The target in experiment [4] is T1, IL-12 receptor beta 1-biotin …. Put plainly: ELISA.
For experiment [5], the target named is T2, recombinant human CD20. Put plainly: SPR.

Where two headings read alike, the source gives them in different places.

B1: Rituximab (anti-hu CD20 monoclonal antibody) (antibody, V domains shown)
VH: QVQLQQPGAELVKPGASVKMSCKASGYTFTSYNMHWVKQTPGRGLEWIGAIYPGNGDTSYNQKFKGKATLTADKSSSTAYMQLSSLTSEDSAVYYCARSTYYGGDWYFNVWGAGTTVTVSA
VL: QIVLSQSPAILSASPGEKVTMTCRASSSVSYIHWFQQKPGSSPKPWIYATSNLASGVPVRFSGSGSGTSYSLTISRVEAEDAATYYCQQWTSNPPTFGGGTKLEIKR
For B1, the midpoint of the response in experiment [1], the EC50, lay at 25.1 nM.

B2: T2.09 (anti-hu CD20/hu IL-12 mut2, hu IgG1 (2 + 1, LC scFv)) (bispecific antibody)
heavy: not shown
light: QIVLSQSPAILSASPGEKVTMTCRASSSVSYIHWFQQKPGSSPKPWIYATSNLASGVPVRFSGSGSGTSYSLTISRVEAEDAATYYCQQWTSNPPTFGGGTKLEIKRTVAAPSVFIFPPSDEQLKSGTASVVCLLNNFYPREAKVQWKVDNALQSGNSQESVTEQDSKDSTYSLSSTLTLSKADYEKHKVYACEVTHQGLSSPVTKSFNRGECGGGGSGGGGSGGGGSQVQLQQPGAELVKPGASVKMSCKASGYTFTSYNMHWVKQTPGRGLEWIGAIYPGNGDTSYNQKFKGKATLTADKSSSTAYMQLSSLTSEDSAVYYCARSTYYGGDWYFNVWGAGTTVTVSAGGGGSGGGGSGGGGSGGGGSQIVLSQSPAILSASPGEKVTMTCRASSSVSYIHWFQQKPGSSPKPWIYATSNLASGVPVRFSGSGSGTSYSLTISRVEAEDAATYYCQQWTSNPPTFGGGTKLEIK
chain: not shown
On to B2, for which the Kd in the experiment with recombinant human CD20 [2] is 3.67 nM.

B3: T2.08 (anti-hu CD20/hu IL-12, hu IgG1 (2 + 1, LC scFv)) (bispecific antibody)
heavy: not shown
light: QIVLSQSPAILSASPGEKVTMTCRASSSVSYIHWFQQKPGSSPKPWIYATSNLASGVPVRFSGSGSGTSYSLTISRVEAEDAATYYCQQWTSNPPTFGGGTKLEIKRTVAAPSVFIFPPSDEQLKSGTASVVCLLNNFYPREAKVQWKVDNALQSGNSQESVTEQDSKDSTYSLSSTLTLSKADYEKHKVYACEVTHQGLSSPVTKSFNRGECGGGGSGGGGSGGGGSQVQLQQPGAELVKPGASVKMSCKASGYTFTSYNMHWVKQTPGRGLEWIGAIYPGNGDTSYNQKFKGKATLTADKSSSTAYMQLSSLTSEDSAVYYCARSTYYGGDWYFNVWGAGTTVTVSAGGGGSGGGGSGGGGSGGGGSQIVLSQSPAILSASPGEKVTMTCRASSSVSYIHWFQQKPGSSPKPWIYATSNLASGVPVRFSGSGSGTSYSLTISRVEAEDAATYYCQQWTSNPPTFGGGTKLEIK
chain: not shown
On to B3, for which the Kd with recombinant human CD20 [2] came to 2.08 nM.

B4: T2.04 (anti-hu CD20/hu IL-12, hu IgG1 (2 + 1)) (bispecific antibody)
heavy: not shown
light: QIVLSQSPAILSASPGEKVTMTCRASSSVSYIHWFQQKPGSSPKPWIYATSNLASGVPVRFSGSGSGTSYSLTISRVEAEDAATYYCQQWTSNPPTFGGGTKLEIKGGGGSGGGGSGGGGSQIVLSQSPAILSASPGEKVTMTCRASSSVSYIHWFQQKPGSSPKPWIYATSNLASGVPVRFSGSGSGTSYSLTISRVEAEDAATYYCQQWTSNPPTFGGGTKLEIKRTVAAPSVFIFPPSDEQLKSGTASVVCLLNNFYPREAKVQWKVDNALQSGNSQESVTEQDSKDSTYSLSSTLTLSKADYEKHKVYACEVTHQGLSSPVTKSFNRGEC
chain: not shown
With B4, the Kd in the experiment with recombinant human CD20 [3] worked out at 7.58 nM.

B5: T2.05 (anti-hu CD20/hu IL-12 mut2, hu IgG1 (2 + 1)) (bispecific antibody)
heavy: not shown
light: QIVLSQSPAILSASPGEKVTMTCRASSSVSYIHWFQQKPGSSPKPWIYATSNLASGVPVRFSGSGSGTSYSLTISRVEAEDAATYYCQQWTSNPPTFGGGTKLEIKGGGGSGGGGSGGGGSQIVLSQSPAILSASPGEKVTMTCRASSSVSYIHWFQQKPGSSPKPWIYATSNLASGVPVRFSGSGSGTSYSLTISRVEAEDAATYYCQQWTSNPPTFGGGTKLEIKRTVAAPSVFIFPPSDEQLKSGTASVVCLLNNFYPREAKVQWKVDNALQSGNSQESVTEQDSKDSTYSLSSTLTLSKADYEKHKVYACEVTHQGLSSPVTKSFNRGEC
chain: not shown
For the molecule B5, in the experiment with recombinant human CD20 [3], the Kd stood at 2.88 nM.

B6: T2.01 (anti-hu CD20/hu IL-12, hu IgG1) (bispecific antibody)
heavy: not shown
light: QIVLSQSPAILSASPGEKVTMTCRASSSVSYIHWFQQKPGSSPKPWIYATSNLASGVPVRFSGSGSGTSYSLTISRVEAEDAATYYCQQWTSNPPTFGGGTKLEIKRTVAAPSVFIFPPSDEQLKSGTASVVCLLNNFYPREAKVQWKVDNALQSGNSQESVTEQDSKDSTYSLSSTLTLSKADYEKHKVYACEVTHQGLSSPVTKSFNRGEC
chain: not shown
B6 yielded an EC50 in experiment [4] of 16.2 nM. The Kd with recombinant human CD20 [5] stood at 5.84 nM.

B7: T2.06 (anti-hu CD20/hu IL-12, hu IgG1 (2 + 1, HC scFv)) (bispecific antibody)
heavy: not shown
light: QIVLSQSPAILSASPGEKVTMTCRASSSVSYIHWFQQKPGSSPKPWIYATSNLASGVPVRFSGSGSGTSYSLTISRVEAEDAATYYCQQWTSNPPTFGGGTKLEIKRTVAAPSVFIFPPSDEQLKSGTASVVCLLNNFYPREAKVQWKVDNALQSGNSQESVTEQDSKDSTYSLSSTLTLSKADYEKHKVYACEVTHQGLSSPVTKSFNRGEC
chain: not shown
As for B7, the Kd in the experiment with recombinant human CD20 [3] worked out at 11.5 nM.

B8: T2.10 (anti-hu CD20/anti-hu CD20-hu IL-12, hu IgG1 (2 + 1)) (antibody)
heavy 1: not shown
heavy 2: not shown
light: QIVLSQSPAILSASPGEKVTMTCRASSSVSYIHWFQQKPGSSPKPWIYATSNLASGVPVRFSGSGSGTSYSLTISRVEAEDAATYYCQQWTSNPPTFGGGTKLEIKRTVAAPSVFIFPPSDEQLKSGTASVVCLLNNFYPREAKVQWKVDNALQSGNSQESVTEQDSKDSTYSLSSTLTLSKADYEKHKVYACEVTHQGLSSPVTKSFNRGEC
Take B8: the Kd with recombinant human CD20 [2] was found to be 16.6 nM.

B9: T2.02 (anti-hu CD20/hu IL-12 mut1, hu IgG1) (bispecific antibody)
heavy: not shown
light: QIVLSQSPAILSASPGEKVTMTCRASSSVSYIHWFQQKPGSSPKPWIYATSNLASGVPVRFSGSGSGTSYSLTISRVEAEDAATYYCQQWTSNPPTFGGGTKLEIKRTVAAPSVFIFPPSDEQLKSGTASVVCLLNNFYPREAKVQWKVDNALQSGNSQESVTEQDSKDSTYSLSSTLTLSKADYEKHKVYACEVTHQGLSSPVTKSFNRGEC
chain: not shown
The molecule B9 came in with an EC50 in experiment [4] of 17.6 nM. For the same molecule, the Kd with recombinant human CD20 [5] was 7.2 nM.

B10: T2.11 (anti-hu CD20/anti-hu CD20-hu IL-12 mut2, hu IgG1 (2 + 1)) (antibody)
heavy 1: not shown
heavy 2: not shown
light: QIVLSQSPAILSASPGEKVTMTCRASSSVSYIHWFQQKPGSSPKPWIYATSNLASGVPVRFSGSGSGTSYSLTISRVEAEDAATYYCQQWTSNPPTFGGGTKLEIKRTVAAPSVFIFPPSDEQLKSGTASVVCLLNNFYPREAKVQWKVDNALQSGNSQESVTEQDSKDSTYSLSSTLTLSKADYEKHKVYACEVTHQGLSSPVTKSFNRGEC
For the molecule B10, the Kd in the experiment with recombinant human CD20 [2] amounted to 1390 nM.

B11: T2.07 (anti-hu CD20/hu IL-12 mut2, hu IgG1 (2 + 1, HC scFv)) (bispecific antibody)
heavy: not shown
light: QIVLSQSPAILSASPGEKVTMTCRASSSVSYIHWFQQKPGSSPKPWIYATSNLASGVPVRFSGSGSGTSYSLTISRVEAEDAATYYCQQWTSNPPTFGGGTKLEIKRTVAAPSVFIFPPSDEQLKSGTASVVCLLNNFYPREAKVQWKVDNALQSGNSQESVTEQDSKDSTYSLSSTLTLSKADYEKHKVYACEVTHQGLSSPVTKSFNRGEC
chain: not shown
As to B11, the Kd with recombinant human CD20 [3] is 2.84 nM.

The term EC50 denotes the concentration that produces a half-maximal response. Low readings indicate a more potent agent, high ones a less potent agent. A word on the Kd: it is the constant that tells how readily two partners part at equilibrium.
